Results reported in patent US20030207791A1, “Materials and methods relating to the treatment of leukaemias” (priority 2000, published 2003).

Tests used:
[1] = target: nuclear corepressor (NCoR) (UniProt O75376); assay: cell-based or functional assay
[2] = target: PML-RAR (UniProt P29590); assay: cell-based or functional assay
Chain of PML-RAR (UniProt P29590) (P29590 other isoform, or with tags, fused parts or gaps limits assumed): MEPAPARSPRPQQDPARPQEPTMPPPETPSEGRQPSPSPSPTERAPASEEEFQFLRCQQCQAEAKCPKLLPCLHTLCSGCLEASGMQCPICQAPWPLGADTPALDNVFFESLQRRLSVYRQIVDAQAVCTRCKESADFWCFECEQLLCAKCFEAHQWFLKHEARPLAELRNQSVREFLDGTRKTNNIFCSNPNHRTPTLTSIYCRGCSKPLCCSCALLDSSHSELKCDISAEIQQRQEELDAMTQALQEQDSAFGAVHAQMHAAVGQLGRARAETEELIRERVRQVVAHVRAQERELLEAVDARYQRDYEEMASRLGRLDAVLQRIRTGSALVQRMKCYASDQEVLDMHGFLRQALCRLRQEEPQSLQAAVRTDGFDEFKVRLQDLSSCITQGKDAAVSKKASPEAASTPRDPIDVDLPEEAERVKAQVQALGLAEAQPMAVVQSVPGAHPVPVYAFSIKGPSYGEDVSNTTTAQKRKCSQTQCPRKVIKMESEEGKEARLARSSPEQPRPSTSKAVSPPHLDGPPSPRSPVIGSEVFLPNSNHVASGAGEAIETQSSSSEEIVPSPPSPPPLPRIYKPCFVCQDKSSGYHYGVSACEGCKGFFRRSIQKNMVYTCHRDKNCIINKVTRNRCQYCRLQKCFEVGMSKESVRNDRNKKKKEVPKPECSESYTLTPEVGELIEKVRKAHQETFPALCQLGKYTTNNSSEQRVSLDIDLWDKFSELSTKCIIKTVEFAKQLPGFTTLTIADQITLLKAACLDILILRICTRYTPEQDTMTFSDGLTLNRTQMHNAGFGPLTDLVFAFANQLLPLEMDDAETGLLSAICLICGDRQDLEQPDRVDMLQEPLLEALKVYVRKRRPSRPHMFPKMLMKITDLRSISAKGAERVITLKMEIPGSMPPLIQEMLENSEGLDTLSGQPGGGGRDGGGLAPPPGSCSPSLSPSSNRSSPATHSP

Chain of PML-RAR (from UniProt P29590 1-552; P10276 61-462) (P29590 other isoform, or with tags, fused parts or gaps limits assumed): as above
Chain of nuclear corepressor (NCoR) (O75376 whole entry): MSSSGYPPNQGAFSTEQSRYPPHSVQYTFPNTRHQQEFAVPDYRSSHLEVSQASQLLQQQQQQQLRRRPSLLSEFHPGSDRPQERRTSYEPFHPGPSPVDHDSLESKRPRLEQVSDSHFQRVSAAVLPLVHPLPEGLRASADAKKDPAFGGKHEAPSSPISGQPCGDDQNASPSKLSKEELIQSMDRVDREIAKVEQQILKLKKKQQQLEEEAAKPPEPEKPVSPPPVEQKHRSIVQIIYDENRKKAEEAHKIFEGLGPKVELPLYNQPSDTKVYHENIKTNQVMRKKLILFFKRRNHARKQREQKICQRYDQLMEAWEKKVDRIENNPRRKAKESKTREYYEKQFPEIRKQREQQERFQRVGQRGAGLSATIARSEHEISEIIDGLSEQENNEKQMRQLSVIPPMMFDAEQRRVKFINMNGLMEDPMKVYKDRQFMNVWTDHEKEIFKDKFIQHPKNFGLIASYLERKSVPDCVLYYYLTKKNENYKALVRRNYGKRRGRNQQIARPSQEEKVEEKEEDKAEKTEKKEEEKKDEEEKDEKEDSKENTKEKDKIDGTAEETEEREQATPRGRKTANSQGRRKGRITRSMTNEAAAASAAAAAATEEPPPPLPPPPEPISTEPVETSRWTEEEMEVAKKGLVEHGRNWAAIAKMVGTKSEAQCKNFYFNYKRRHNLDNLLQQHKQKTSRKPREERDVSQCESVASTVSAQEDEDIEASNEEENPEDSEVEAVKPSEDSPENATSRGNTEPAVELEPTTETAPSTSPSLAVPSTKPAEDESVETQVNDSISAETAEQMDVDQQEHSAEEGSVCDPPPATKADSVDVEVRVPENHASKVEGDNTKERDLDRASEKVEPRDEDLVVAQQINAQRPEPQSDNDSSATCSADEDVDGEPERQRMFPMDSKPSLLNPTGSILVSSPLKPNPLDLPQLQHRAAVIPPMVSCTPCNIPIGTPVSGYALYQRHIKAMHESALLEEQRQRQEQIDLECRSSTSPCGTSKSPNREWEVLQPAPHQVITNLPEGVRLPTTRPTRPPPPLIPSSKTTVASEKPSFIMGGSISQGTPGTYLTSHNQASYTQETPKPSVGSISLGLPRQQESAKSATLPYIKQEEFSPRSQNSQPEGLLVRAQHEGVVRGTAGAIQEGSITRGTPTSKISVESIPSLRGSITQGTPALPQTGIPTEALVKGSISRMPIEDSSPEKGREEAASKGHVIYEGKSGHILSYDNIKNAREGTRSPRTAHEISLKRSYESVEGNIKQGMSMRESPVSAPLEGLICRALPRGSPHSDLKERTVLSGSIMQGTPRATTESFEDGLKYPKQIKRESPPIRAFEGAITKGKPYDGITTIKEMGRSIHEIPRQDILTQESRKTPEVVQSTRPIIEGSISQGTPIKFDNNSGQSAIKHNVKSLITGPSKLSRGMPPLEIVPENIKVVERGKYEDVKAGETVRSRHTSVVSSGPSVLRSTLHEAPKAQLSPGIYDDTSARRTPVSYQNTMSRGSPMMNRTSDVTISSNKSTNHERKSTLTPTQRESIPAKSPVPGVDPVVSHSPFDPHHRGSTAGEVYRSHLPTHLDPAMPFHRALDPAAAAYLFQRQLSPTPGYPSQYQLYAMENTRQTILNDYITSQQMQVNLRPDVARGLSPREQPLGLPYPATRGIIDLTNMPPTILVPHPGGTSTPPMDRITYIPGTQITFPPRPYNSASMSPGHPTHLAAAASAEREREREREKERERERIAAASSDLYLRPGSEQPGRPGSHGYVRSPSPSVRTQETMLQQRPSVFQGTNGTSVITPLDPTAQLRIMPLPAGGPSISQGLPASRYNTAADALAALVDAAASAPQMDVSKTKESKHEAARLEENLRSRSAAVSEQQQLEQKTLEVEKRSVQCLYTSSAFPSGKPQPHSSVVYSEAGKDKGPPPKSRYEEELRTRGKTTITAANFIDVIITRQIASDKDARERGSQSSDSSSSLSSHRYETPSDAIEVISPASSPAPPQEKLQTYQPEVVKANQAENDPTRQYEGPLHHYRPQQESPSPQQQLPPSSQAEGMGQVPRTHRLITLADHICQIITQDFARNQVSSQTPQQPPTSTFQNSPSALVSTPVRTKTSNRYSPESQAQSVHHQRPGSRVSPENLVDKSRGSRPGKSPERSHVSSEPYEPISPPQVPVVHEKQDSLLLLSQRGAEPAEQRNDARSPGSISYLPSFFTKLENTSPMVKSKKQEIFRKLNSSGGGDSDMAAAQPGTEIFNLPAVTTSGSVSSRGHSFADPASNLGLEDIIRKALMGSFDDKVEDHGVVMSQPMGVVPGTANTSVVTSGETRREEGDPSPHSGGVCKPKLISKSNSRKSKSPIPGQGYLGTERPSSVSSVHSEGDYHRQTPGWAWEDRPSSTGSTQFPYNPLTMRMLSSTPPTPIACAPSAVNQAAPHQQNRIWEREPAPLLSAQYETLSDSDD

transcriptional repression of GAL4-VP16 activation of the RARE-G5-TATA reporter in HeLa cells, 50 ng expression vector [1] [%] | percentage of differentiated, CD14+ U937 cells after vitamin D and TGFβ, PML-RAR induced (% CD14+ cells) [2] | Substance
30 to 40 | – | PML-RAR (from UniProt P29590 1-552; P10276 61-462)
– | 70 | coiled coil of PML (RBCC) (from UniProt P29590 1-360)
